Measured values reported in patent US20250368742A1 (D2M BIOTHERAPEUTICS, published 2025).
Like-named read-outs stand apart in the source and are kept apart here.

T1: human MICA002 on cells (human)
T1 chain: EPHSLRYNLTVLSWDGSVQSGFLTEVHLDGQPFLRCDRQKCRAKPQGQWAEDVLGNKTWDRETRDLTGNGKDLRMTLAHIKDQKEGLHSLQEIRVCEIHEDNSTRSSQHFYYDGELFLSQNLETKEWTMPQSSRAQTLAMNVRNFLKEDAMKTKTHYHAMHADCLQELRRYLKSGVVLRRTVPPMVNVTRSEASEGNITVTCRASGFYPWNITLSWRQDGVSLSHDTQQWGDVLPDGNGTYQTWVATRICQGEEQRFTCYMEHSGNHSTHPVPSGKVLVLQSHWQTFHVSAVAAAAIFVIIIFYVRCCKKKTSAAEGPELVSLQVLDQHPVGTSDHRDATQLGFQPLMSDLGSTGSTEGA

T2: MICA008-ECD-HISAvi (human)
T2 construct: Two sources under one name in the two kinetic assays; also called MICA008 polypeptide
T2 chain: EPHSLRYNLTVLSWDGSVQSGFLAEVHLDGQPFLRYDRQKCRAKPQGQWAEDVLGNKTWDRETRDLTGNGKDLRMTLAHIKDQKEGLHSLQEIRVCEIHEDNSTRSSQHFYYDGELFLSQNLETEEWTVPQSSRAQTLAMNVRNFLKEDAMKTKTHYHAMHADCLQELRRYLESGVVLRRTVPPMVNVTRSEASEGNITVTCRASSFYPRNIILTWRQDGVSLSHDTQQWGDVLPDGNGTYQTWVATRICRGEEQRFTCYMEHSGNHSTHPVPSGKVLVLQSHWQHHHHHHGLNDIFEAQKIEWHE

T3: MICB005-ECD-HISAvi (human, UniProt Q29980 24-309)
T3 construct: Two sources under one name in the two kinetic assays; also called MICB005 polypeptide
T3 sequence: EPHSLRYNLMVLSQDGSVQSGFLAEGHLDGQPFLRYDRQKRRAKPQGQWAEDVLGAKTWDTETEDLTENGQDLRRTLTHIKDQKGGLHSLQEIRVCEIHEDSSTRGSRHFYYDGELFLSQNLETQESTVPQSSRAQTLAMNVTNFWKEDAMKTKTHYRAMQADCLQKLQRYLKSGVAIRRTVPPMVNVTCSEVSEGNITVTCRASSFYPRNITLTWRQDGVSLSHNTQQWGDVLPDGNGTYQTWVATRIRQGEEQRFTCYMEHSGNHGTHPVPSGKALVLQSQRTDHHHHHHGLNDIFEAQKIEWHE

T4: MICA002-ECD-HISAvi (human, UniProt Q29983 24-308)
T4 construct: also called MICA002 polypeptide
T4 chain: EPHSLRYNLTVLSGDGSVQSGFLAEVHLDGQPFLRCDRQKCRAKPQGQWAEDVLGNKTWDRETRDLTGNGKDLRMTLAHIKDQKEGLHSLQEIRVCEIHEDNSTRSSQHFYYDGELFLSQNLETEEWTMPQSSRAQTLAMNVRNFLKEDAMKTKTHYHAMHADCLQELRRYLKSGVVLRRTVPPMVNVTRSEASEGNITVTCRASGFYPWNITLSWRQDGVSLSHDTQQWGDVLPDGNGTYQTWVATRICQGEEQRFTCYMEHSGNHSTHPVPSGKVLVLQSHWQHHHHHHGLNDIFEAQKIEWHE

T5: MICA004-ECD-HISAvi (human)
T5 construct: also called MICA004 polypeptide
T5 chain: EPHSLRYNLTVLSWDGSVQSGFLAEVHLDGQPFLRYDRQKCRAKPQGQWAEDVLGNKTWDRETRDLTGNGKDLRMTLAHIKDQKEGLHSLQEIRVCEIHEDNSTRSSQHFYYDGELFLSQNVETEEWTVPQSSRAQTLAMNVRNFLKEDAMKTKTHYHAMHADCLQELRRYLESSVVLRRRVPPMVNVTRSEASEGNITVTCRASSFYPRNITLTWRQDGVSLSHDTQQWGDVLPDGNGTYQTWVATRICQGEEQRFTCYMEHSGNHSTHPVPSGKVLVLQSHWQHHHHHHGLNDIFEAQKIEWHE


Columns and labels:
[1] = target: T6, human MICA008 on cells (human); assay: flow cytometry, HeLa cells (MICA008)
T6 construct: whole, on cells; also called CHO-MICA008; C1R-MICA008
T6 sequence (Q29983 whole entry): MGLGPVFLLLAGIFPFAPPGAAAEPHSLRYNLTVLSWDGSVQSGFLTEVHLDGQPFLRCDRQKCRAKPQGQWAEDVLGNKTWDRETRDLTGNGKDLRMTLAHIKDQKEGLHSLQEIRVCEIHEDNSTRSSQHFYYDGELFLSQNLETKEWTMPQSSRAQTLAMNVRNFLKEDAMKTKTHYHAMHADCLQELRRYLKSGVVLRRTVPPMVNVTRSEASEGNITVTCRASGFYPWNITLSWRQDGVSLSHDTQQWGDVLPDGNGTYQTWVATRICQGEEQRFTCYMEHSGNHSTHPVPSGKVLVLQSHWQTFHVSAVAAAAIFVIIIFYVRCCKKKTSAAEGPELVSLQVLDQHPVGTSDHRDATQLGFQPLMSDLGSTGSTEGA

[2] = target: T1, human MICA002 on cells; assay: flow cytometry, CHO-MICA002 cells
Method: CHO-MICA002 cells were incubated with titrated anti-MICA/B antibodies and then APC-labeled anti-human Fc antibody. […] The antibody binding signals of APC (gMFI) to MICA/B were measured by flow cytometry.
(§1) After an incubation time of 30 minutes, the plate was centrifuged and cells were washed with PBS three times. […] After mixing for 30 minutes at room temperature, cells were washed with PBS twice. Fluorescent signal was detected and quantified by flow cytometry (Attune™ CytPix™, ThermoFisher) within the population of live cells (viability dye PI negative).

[3] = target: T7, human MICB005 on cells (human); assay: flow cytometry on CHO-MICB005 cells; column HSA_1w (1 week in human serum at 37 C)
T7 construct: whole, on cells; also called CHO-MICB005; C1R-MICB005
Method: (§2) The plate was centrifuged, and cells were washed with PBS three times. […] After incubation for 30 minutes at room temperature, cells were washed with PBS twice. Signals of APC were determined by flow cytometry (Attune™ CytPix™, ThermoFisher) within the population of live cells (viability dye PI negative).
(§3) The EC50 values were calculated based on non-linear fitting curves by GraphPad Prism software.

[4] = target: T6, human MICA008 on cells; assay: flow cytometry, CHO-MICA008 cells
Method: (§4) IgG1 is an isotype control (IgG). The antibody binding signals of APC (gMFI) to MICA/B were measured by flow cytometry.
as §1

[5] = target: T7, human MICB005 on cells; assay: flow cytometry, CHO-MICB005 cells
Method: as §4, §1

[6] = target: T2, MICA008-ECD-HISAvi; assay: BLI (GatorPrime); antibody on anti-hIgG Fc probe, monomeric antigen in solution;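 further: binding kinetics of anti-MICA/B antibodies measured by biolayer interferometry, with dissociation followed for about 10 min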
Method: (§5) The binding kinetics of the antibodies were also measured using the GatorPrime BLI (Biolayer Interferometry) system (Gator Bio, USA). Specifically, the anti-MICA/B antibodies were loaded with HFC (Anti-hIgG Fc, Gator Bio, Cat #: 160003). […] The dissociation kinetics were monitored for approximately 10 minutes. The probes were regenerated between binding cycles with Regeneration Buffer (Gator Bio, Cat #: 120012). Binding kinetics were analyzed using software supplied by the manufacturer.

[7] = target: T3, MICB005-ECD-HISAvi; assay: as above
Method: as §5

[8] = target: T8, Cynomolgus monkey MICA (cynoMICA) (Cynomolgus monkey (Macaca fascicularis)); assay: as above
T8 construct: also called cyno monkey MICA; cyno MIC protein
Method: as §5

[9] = target: T4, MICA002-ECD-HISAvi; assay: as above
Method: as §5

[10] = target: T9, MICA009Avi (human); assay: as above
T9 construct: extracellular domain
Method: as §5

[11] = target: T5, MICA004-ECD-HISAvi; assay: as above
Method: as §5

[12] = target: T6, human MICA008 on cells; assay: flow cytometry, CHO-MICA008 cells; remark: listed apart in the source
[13] = target: T7, human MICB005 on cells; assay: flow cytometry on CHO-MICB005 cells; column Control_1w (control of the 1-week experiment)
Method: as §2, §3

[14] = target: T6, human MICA008 on cells; assay: flow cytometry, CHO-MICA008 cells; remark: listed apart in the source
[15] = target: T10, human MICA004 on cells (human); assay: flow cytometry, CHO-MICA004 cells
T10 construct: whole, on cells; also called CHO-MICA004; C1R-MICA004
T10 sequence (Q29983 whole entry): as above

[16] = target: T1, human MICA002 on cells; assay: flow cytometry, CHO-MICA002 cells

Binder | EC50 [1] | EC50 [2] | EC50 [3] | EC50 [4] | EC50 [5] | Kd [6] | Kd [7] | Kd [8] | Kd [9] | Kd [10] | Kd [11] | EC50 [12] | EC50 [13] | EC50 [14] | EC50 [15] | EC50 [16]
3F9 (antibody, human IgG1, kappa, V domains shown, also called benchmark 3F9) VH: QVQLVESGGGLVKPGGSLRLSCAASGFTFSNYAMSWIRQAPGKGLEWVSYISPGGDYIYYADSVKGRFTISRDNAKNSLYLQMNSLRAEDTAVYYCTTDRRHYGSYAMDYWGQGTLVTVSS VL: DIVMTQSPLSLPVTPGEPASISCRSSKSLLHSNLNTYLYWFLQKPGQSPQILIYRMSNLASGVPDRFSGSGSGTAFTLKISRVEAEDVGVYYCMQHLEYPFTFGPGTKLEIKR | 0.651 µg/mL | 0.352 µg/mL | 0.804 µg/mL | 0.119 µg/mL | 0.572 µg/mL | 0.295 nM | 2.19 nM | 14.3 nM | 1.35 nM | 0.936 nM | 1.08 nM | 0.272 µg/mL | 0.836 µg/mL | – | – | –
1D5 (antibody, human IgG1, kappa, V domains shown, also called ID5) VH: EIQLQQSGPELVKPGASVKVSCKASGYAFTSQNIYWVKQSHGKSLEWIGYIEPYNVVPMYNPKFKGKATLTVDKSSSSAYIHLNSLTSEDSAIYYCARSGSSNFDYWGQGTTLTVSS VL: EIILTQSPTTMAASPGEKITITCSASSSISSHYLHWYQQKSGFSPKLLIYRTSNLASGVPARFSGSGSGTSYSLTIGTMEAEDVATYYCQQGSSLPLTFGAGTKVEIKR | 0.133 µg/mL | 0.19 µg/mL | 0.229 µg/mL | 0.028 µg/mL | 0.152 µg/mL | 0.026 nM | 0.195 nM | 5.2 nM | 0.0757 nM | 0.11 nM | 0.101 nM | 0.06 µg/mL | 0.237 µg/mL | 0.04 µg/mL | 0.051 µg/mL | 0.209 µg/mL
